This note sets out measurements from the DeepSol protein solubility set.

The data set can be described thus: soluble on expression in E. coli; label from the status in PepcDB or PDB records.
Regarding “MRQIKVVLIGGGTGLSVMARGLREFPIDITAIVTVADNGGSTGKIRDEMDIPAPGDIRNVIAALSDSESVLSQLFQYRFEENQISGHSLGNLLIAGMTNITNDFGHAIKALSKILNIKGRVIPSTNTSVQLNAVMEDGEIVFGETNIPKKHKKIDRVFLEPNDVQPMEEAIDALREADLIVLGPGSLYTSVISNLCVNGISDALIHSDAPKLYVSNVMTQPGETDGYSVKDHIDAIHRQAGQPFIDYVICSTQTFNAQVLKKYEEKHSKPVEVNKAELEKESINVKTSSNLVEISENHLVRHNTKVLSTMIYDIALELISTIPFVPSDKRK”, the “soluble on expression in E. coli” value is on record as “not soluble”.

Take “MGMIGYFAEIDSEKINQLLESTEKPLMDNIHDTLSGLRRLDIDKRWDFLHFGLTGTSAFDPAKNDPLSRAVLGEHSLEDGIDGFLGLTWNQELAATIDRLESLDRNELRKQFSIKRLNEMEIYPGVTFSEELEGQLFASIMLDMEKLISAYRRMLRQGNHALTVIVG”: the “soluble on expression in E. coli” value is “soluble”. Under “MGSDKIHHHHHHMEKIIVNGRKNGQKIEIACSNLVMGAGDFLRADNMDFAGPVLDQYFEMGGNIFDTARHYRHSEKAIGAWMNMRGNRDSVIIQTKGGHPVREASDVPRVTPEAIHEDISVSLDTLQTDHVELFALHRDNPDVEVGSIMEAMHKEVEAGRVYAIGLSNWELSRIIEANEYAVNHGLTPLSFNSPNFSLAKVNRPRWENCVSANEEMIRWHEATNLPLFSWSSQAGGFFSGRFSEEDTSDTEMVEVYYSEANWERYSRAKQLANQKGCTPIQISLAYVLTQSFPTAAVIGPENTTELQSSVAAAGIKLTASEVDWLDLKA” stands “not soluble”.

With “MSSSRNFDLEYDDYKERRNAAGMGSRASSRNGGRFKPIDKEKEKEKKEIGDYGLPKNEYKMQGYDERSSDVGADPLASVRTLRNNLRVMSLEHRDKDEPVKSHLCQSACDDLSKAEKQLVDLSHKRSDAVVRGDSRQAEQIAKDMDRVKSDAIRNAYSDLMMEDGTMKAFGVNSKWTPDKNPMPSDDWKPMTPMKPRKRAETPKGRKTESRQSNRGNNDNGDQRMTSKATTRSPERRVIPTEPSKPKTTRKNQRLSTIGHVPEAIPVVDTPLPGGSTVQDDPYKMPTYVGRCPHCQLTESGLGRAGGMEKHFAKYCKVMTSCKYCMKLTMVSQLTDHLIYRCEFLQDTMEACNDCGLAIEKEDQKRGGSHPMCRGRRPPTGAQWCPLCTIAVEDNEENWREHLLNNCYNNQRRDGPEKDPWEMKQEQEDILLGAKEKKKREMEEEERLKKEAEIRRQQQQVVVNNTGYPGKMIDADKLVVALQEIQERKKAEKKKKLKDIEKET”, the “soluble on expression in E. coli” value is “not soluble”. To “MSLDKPVIQIHTDNSSLIFRVADNGRLYQSYLGKKLNHEADISHLPQGTEAYITHGMEDYFEPAIHILHNDGNPSLLLKYVSHETKAVSQGVNETIITLGDDKYPVTVKLHYVTYPAEDIIKTYTEISHKEKKPVVLHQYASSMLHLNRAKYYLTEFSGDWAHEANISDQPLEFGKKVLDTKLGARANMFTPPFFQLSLDQLATENCGEVLVGTLGWTGNFRFTFEVDNKNELRIISGINPYASEYYLPAGVVFRTPDFYFTYSANGKGKASRNFHDWARRYQLKDGDETRMTLLNNWEATYFDFNEEKLIGLIGDAAGLGVDMFLLDDGWFANKYPRSSDHQGLGDWDETADKLPNGIGRLVEEATKKGIKFGLWIEPEMVNPKSELYEKHKDWVIHLPNRDEYYFRNQLVLDLSNPKVQDFVFGVVDDLMTKYPGIAFFKWDCNSPITNIYSSYLKEKQSHLYIDYVRGLYNVLERIKTKYPDLPMMLCSGGSGRIDYETLRYFTEFWPSDNTDPIERLFIQWGYSQLFPAKTLCAHVTTWNHDASIKFRTDVAMMGKLGFDIKLSDLNDNEKKFCRDAVTNYNHLKPVVLEGDMYRLVSPYSGNHTSTQYVGKDKKGAVVFAFDIYSRYGEKLLPVRLQGLDAGRQYRVKEINLMPGTNSEGHHHHHH” belongs “not soluble”; to “MGSDKIHHHHHHMNRVILFHFHFFKNAGSAVDYILEKNFGDRFVKKEFKLWPYYENIKEVIKWIENESDAVAFSSHTARLFDSTLLERRGIKIIPIIFVRHPIIRIHSAYHYERKQVDIFRPGPVIARNTDFKGYVEIRLAIPRQEFNVSNFHVFRLADMLHGEKNMKPLEKALIALKRLPFIGLVEEFEKSMTKLEETVREYFPEFKASVIRTNVQFSPDMPLEERLKIIKNEVGKDFYKKLMEINEEDMVLWEKVVDMYKEGF”, “not soluble”.

“MSLGLHACIDPIAVAHNLEVLRQRLGVGVDGPRIWATVKADAYGHGLHNVLPGLRAADGIAVRHLHEAHQCRRVGWSGPIMVYAGLTHEREAALLTLQQLHLVITDMTQLEWLPGKPLYSCAPWIWLRYIGATRLGGLDASEYRRAYARCRELQQHGALRGVGHLNHYANAASVGDLEREHADFEACIRGLPGPVSTCNSAAACVLPTMAARTDWVRPGLALYGVSPIPGRAGRDLGLRPAMTLRSTLCATQNLPAGASVGYGCTFVADQPMALGLVRCGYGDGYPHNPRASFPVQVDGVLTRTVGRISMDLMAVDLRPIPAAARGAPVVLWGSPQLPVEHIAHAAGTIAAELLTGLTARVPLMRADHAALLREGHHHHHH”: the “soluble on expression in E. coli” value was “soluble”. To “MAYSNDEIVKGIDGIYSNENPNSNIKYVINESRFNASQLCKTKKGIKQMSDEWLLEDGGKRILEAVNGDRKLQKDIIRVLNKGQVEKVLSRVGKDGKVTTYRLNSNGEIIGFWP” belongs “not soluble”; to “MSLKSFFIGNIEIKVPVIQGGMGVGISLSGLASAVANEGGVGVISCAGLGLLYPKEKGTYTEKCISGLKEEIRKSRMKTKGIIGVNVMVALSNYADMVRTAINEKIDVIFSGAGLPLDLPSYLTTGSITKLVPIVSSSRAAKIICDKWQKNYNYLPDAIVVEGPKAGGHLGFKKEQLQDQNYALDVLIPEVVAIAASYKEQKHIPVIAAGGISTGEDIAHFMELGASGVQMGSIFVTTLECDASETFKEVYIHSKSEDVLIIESPVGMPGRAIDGEFIHSVNNGLEKPRKCSFHCIKTCDYTKSPYCIIKALYNAAKGNMKKGYAFAGSNAFLADKISSVKEVMNTLEREFFLATHKLVEGHHHHHH”, “not soluble”.

On to “MSSQLNHGTLPKISIVTPSYNQAQYLEATMRSILDQGYPDLEYIVMDGGSTDGSTEIIQKYSDRLTYWESAPDKGQADAIFRGFERATGEIFCYVNSDDLLLPGSLEMVGRWFREHPDEEWVVGGTILIDGLGIPIIRSRRGLPEADLGVKVTFKRLLLHNCGGFHQPASFWRRSAFEQAGGFDRTLRFCFDYDLFFRLAKRRPSGRIRSFLAAFRYHPASKTSTLESVFREENETLWRRYGRYLYSENQIRNFAHKQTTRDMWNNRIIKLGFYLKILNVSNAIGSLEHHHHHH”, for which the “soluble on expression in E. coli” value is recorded as “not soluble”. Turning to “MGSDKIHHHHHHMGLTLRQIEVIRAVMIAGTIAGAARLMNVAQPGVSRTMKHIESALGIKLFVKKAGRYVPTDEARDIFAQLQEVHRKVDDLQSSIGQLERGRGVELALGSVPSIANAMMPQAIAGLMRRYPDIRINFDILRIEEAIDYLLLGKGELVAMSYHLTHPSITFEPLSKGHLVCIAAREHPIAGRSRISAREIAEHPLIGIDPRDPYGAIMAGIFEREKLEYRTPIRARFGTTVCALVKRNLGIAVIDAFTVGGMADQGLAVIPISEDTEFQTYVAYRADAALSSYAERLVTTLRRVMDDSTGRSRGGRDA”, the “soluble on expression in E. coli” value is on record as “not soluble”. To “MRGLAVLVLLVFAVQVAAAEDFRPVVFVHGLAGSAGQFESQGMRFAANGYPAEYVKTFEYDTISWALVVETDMLFSGLGSEFGLNISQIIDPETLDKILSKSRERLIDETFSRLDRVIDEALAESGADKVDLVGHSMGTFFLVRYVNSSPERAAKVAHLILLDGVWGVDAPEGIPTLAVFGNPKALPALGLPEEKVVYNATNVYFNNMTHVQLCTSPETFAVMFEFINGYKPATTDIVPQDGDYVKVKGKFLAFATNGDVSGWLSIYPIDENGKRLTRLPVKFMRVKGDFEVRLRKGQLYEFQFRKDFSPIIYHYYRAPFVRDDLWARFLVSKPPLDVELLILPERLSPAAKETSGLLLIRYKEMIGEYDEEIGGVDEVYVNGVNVCTERICPIERAVNGLWVFDRGADGKSDLDREVVRYSIMPFMSAADLVVPAEGTISIAVKSRTGGEESFTIPAWSADRHSIIVQFSDYI” belongs “not soluble”; to “MGSVSTGNAGSGTVGTSTTSRADVMTFQPSSLPVSYVGETYNVQVGVTGGVGPYGYRLTAGTLPPGLKFAGGALSGTPTKAGSYSFAIQATDANLSTRVQEYTMNVDALPPLALKPTLPPGEIRGETRIPVTIQAPRAVRAARLSWDLGKDVQVTRVQPADAGSVVFWQQRGSVLTVDLGFRTVPRPDARIALITVKPAKAVTLKADALGYEARDGSGKMLVDKKRPGSEPVKPAEQPGDPKVDPKAADQKATDQKATDPKTVDPKTVTPADTVEGGPLPSPALPTPSLPPTLPPVTTPPANTPPVPTPTPPANQPAPAPAPQPAPAPQPTPPSGTGGALEHHHHHH”, “not soluble”; to “MRIFSRLFKARDKPKNSLFGNAYSFFFGGTSSGKAVNERTAMQTTAVYACVRILAEAIAGLPLHVYRYKEDGGKEKALTHPLYYLLHDEPNPEMTSFVFRETLMSHLLLWGNAYAQIVRDGSGRVLALYPLLPNKMTVDRAPNGELYYTYRRDSDESRVNPKAGLIYLRSDEVLHIPGLGFDGLIGYSPIAMAKNAIGMAIACEEYGASFFANGANPGGVLEHPGVLKDPAKVRESWNAVYQGSANAHRIAVLEEGMKFQPIGIPPEQAQFLETRKFQINEIARIFRVPPHMVGDLEKSSFSNIEQQSLEFVKYTLDPWVVRWEQALQKALLLPSEKRAYFVKFNVDGLLRGDYASRMNGYAVARQNGWMSANDIRELEDMNRIPAELGGDLYLVNGNMTRLADAGTFAGKNNAETEGSKVEQITKTKTGSPLLELDTKR”, “not soluble”.

Regarding “MQDFLWKSCAIMGTMKLRIEQDDQYKELEIHITYGQKDKLIERILGFLETVDRQLSCYQEGRKYLVNFSDIYYIESVDKKTFVYLADEIYQTDLRLYQLLHDLQHDGFVQISKSCLLNINVLENIRPLFNSRMEATLLNGERVIVNRRYLPDVKEALKGIQ”, the “soluble on expression in E. coli” value is recorded as “not soluble”. Under “MNISPKAIKVRNIWIGGTEPCICAPVVGEDDRKVLREAEEVCRKQPDLLEWRADFFRAIDDQERVLATANGLRNIAGEIPILFTIRSEREGGQPIPLNEAEVRRLIEAICRSGAIDLVDYELAYGERIADVRRMTEECSVWLVVSRHYFDGTPRKETLLADMRQAERYGADIAKVAVMPKSPEDVLVLLQATEEARRELAIPLITMAMGGLGAITRLAGWLFGSAVTFAVGNQSSAPGQIPIDDVRTVLSILQTYSR” stands “soluble”; under “MAERELYIGVMSGTSLDGVDTALVALQDDNIELLAHHDYPIPADLKQRLLNVCIGQPTTLIAMGELEHDLGHLFSDAVLALLQHSGYRAEHIRAIGCHGQTVFHQPTGTKPFTMQIGDANIIATRTGITTVADFRRKDVALGGQGAPLVPAFHRTIFHAEQSTVVVLNIGGIANISVLKPNGEVVGYDTGPGNMLMDSWCQKERNQPYDKDALWAKQGSVNAALLSHLKQDHYFALPAPKSTGRELFNLPWLETQLATFSVDATDVQRTLCEFTAQTIVEQVAPFAEGPQPQLLVCGGGAQNPLLMERLQALLPSWQVAPTTQMGVDGDNMEAMAFAWLAQRRIHGLPSNLPAVTGASRLASLGVIYYPD”, “not soluble”; under “MEKTPAETTAVSAGNVPRDSIPCITNVSADTRGRTRPSRPATVPQRRPARIGHFRRRSASLSFLDWPDGSVTEGVRTTSASVAASAARFDEIRRRRQSINDEMKERTLEDALAVELVNETFRCSVTSDARKDLQKLVRRVSGTVLRLSWPNGWFFTYCDLLRVGYFGHLNIKGLEKTFLCCDKFLPGLEHHHHHH”, “not soluble”.
